Test results taken from PMC3405243, “Segmental isotopic labeling of a 140 kDa dimeric multi-domain protein CheA from Escherichia coli by expressed protein ligation and protein trans-splicing” (Journal of Biomolecular Nmr, 2012).

B2: ligated CheA P1(Q153G)/(S154C)P2–5 produced by expressed protein ligation (EPL) (enzyme, E. coli, UniProt P07363 1-654, looked up)
chain: MSMDISDFYQTFFDEADELLADMEQHLLVLQPEAPDAEQLNAIFRAAHSIKGGAGTFGFSVLQETTHLMENLLDEARRGEMQLNTDIINLFLETKDIMQEQLDAYKQSQEPDAASFDYICQALRQLALEAKGETPSAVTRLSVVAKSEPQDEGCRSQSPRRIILSRLKAGEVDLLEEELGHLTTLTDVVKGADSLSAILPGDIAEDDITAVLCFVIEADQITFETVEVSPKISTPPVLKLAAEQAPTGRVEREKTTRSNESTSIRVAVEKVDQLINLVGELVITQSMLAQRSSELDPVNHGDLITSMGQLQRNARDLQESVMSIRMMPMEYVFSRYPRLVRDLAGKLGKQVELTLVGSSTELDKSLIERIIDPLTHLVRNSLDHGIELPEKRLAAGKNSVGNLILSAEHQGGNICIEVTDDGAGLNRERILAKAASQGLTVSENMSDDEVAMLIFAPGFSTAEQVTDVSGRGVGMDVVKRNIQKMGGHVEIQSKQGTGTTIRILLPLTLAILDGMSVRVADEVFILPLNAVMESLQPREADLHPLAGGERVLEVRGEYLPIVELWKVFNVAGAKTEATQGIVVILQSGGRRYALLVDQLIGQHQVVVKNLESNYRKVPGISAATILGDGSVALIVDVSALQAINREQRMANTAA
notes: CheA, E. coli, amplified from genomic DNA of strain BL21; P1 fragment was made as a C-terminal Mxe GyrA intein-CBD fusion and P2–5 as an N-terminal CBD-Ssp DnaB intein fusion (pTWIN1); both inteins were removed before ligation; NMR samples were [2H,15N]-labeled in P1; UniProt entry is of strain K-12; the DNA was from strain BL21; also called Q153G/S154C dimer; ligated product

Key:
[1] = target: B2; test: co-purification (SEC, then separation by anion exchange chromatography); EPL reaction mixture of purified fragments; Superdex 200, then ResourceQ in TEDG buffer with a 0–500 mM NaCl gradient; heterodimer separated from the ligated homodimer; conditions: both partners purified
[2] = target: T1, ligated CheA P1(Q153)/(S154C)P2–5 produced by expressed protein ligation (EPL) (E. coli, UniProt P07363 1-654, S154C); test: as above; conditions: both partners purified
T1 construct: CheA, E. coli, amplified from genomic DNA of strain BL21; Inteins and CBD of both fragments were removed before ligation; also called ligation product of P1/P2–5; source: fragments expressed in E. coli BL21-CodonPlus (DE3)-RP, purified, ligated in vitro (EPL)
T1 sequence (looked up): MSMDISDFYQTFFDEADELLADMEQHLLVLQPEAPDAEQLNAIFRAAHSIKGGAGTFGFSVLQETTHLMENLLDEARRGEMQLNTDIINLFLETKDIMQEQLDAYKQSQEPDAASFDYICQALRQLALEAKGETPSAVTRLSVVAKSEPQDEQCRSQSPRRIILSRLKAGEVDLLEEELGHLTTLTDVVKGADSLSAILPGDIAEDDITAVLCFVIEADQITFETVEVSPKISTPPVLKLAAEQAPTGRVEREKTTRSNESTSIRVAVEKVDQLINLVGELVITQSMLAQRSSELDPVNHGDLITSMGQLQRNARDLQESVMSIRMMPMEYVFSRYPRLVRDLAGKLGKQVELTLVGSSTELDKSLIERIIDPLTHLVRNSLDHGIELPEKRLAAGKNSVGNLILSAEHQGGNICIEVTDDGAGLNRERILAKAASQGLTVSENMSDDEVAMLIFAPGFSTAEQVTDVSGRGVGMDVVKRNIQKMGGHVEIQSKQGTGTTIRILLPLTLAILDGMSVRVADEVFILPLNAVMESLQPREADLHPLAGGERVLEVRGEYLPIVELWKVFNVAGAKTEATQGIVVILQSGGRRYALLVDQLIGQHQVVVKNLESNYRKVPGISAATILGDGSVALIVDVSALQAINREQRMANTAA

[3] = target: the molecule itself; test: SEC; HiLoad 16/60 Superdex 200 prep grade, TEDG buffer (50 mM Tris pH 7.5, 0.5 mM EDTA, 2 mM DTT, 10% glycerol) with 150 mM NaCl; elution volume compared with immunoglobulin G (158 kDa)

B1: (S154C)P2–5 domains of CheA (domain or fragment, E. coli, UniProt P07363 154-654, looked up)
chain: CRSQSPRRIILSRLKAGEVDLLEEELGHLTTLTDVVKGADSLSAILPGDIAEDDITAVLCFVIEADQITFETVEVSPKISTPPVLKLAAEQAPTGRVEREKTTRSNESTSIRVAVEKVDQLINLVGELVITQSMLAQRSSELDPVNHGDLITSMGQLQRNARDLQESVMSIRMMPMEYVFSRYPRLVRDLAGKLGKQVELTLVGSSTELDKSLIERIIDPLTHLVRNSLDHGIELPEKRLAAGKNSVGNLILSAEHQGGNICIEVTDDGAGLNRERILAKAASQGLTVSENMSDDEVAMLIFAPGFSTAEQVTDVSGRGVGMDVVKRNIQKMGGHVEIQSKQGTGTTIRILLPLTLAILDGMSVRVADEVFILPLNAVMESLQPREADLHPLAGGERVLEVRGEYLPIVELWKVFNVAGAKTEATQGIVVILQSGGRRYALLVDQLIGQHQVVVKNLESNYRKVPGISAATILGDGSVALIVDVSALQAINREQRMANTAA
notes: CheA P2–5 domains, E. coli, amplified from genomic DNA of strain BL21, residues S154 to A654 with cysteine at the N-terminus; also called unreacted (S154C)P2–5; unreacted P2–5; source: E. coli BL21-CodonPlus (DE3)-RP, purified (chitin beads, intein cleavage); not shown: CBD-Ssp DnaB intein, N-terminal, cleaved
Q: Does B1 bind [1]?
A: binds

Q: Does B1 bind [2]?
A: binds

Q: With B2 as the binder, how does the “stoichiometry N” value [3] read?
A: 2

B3: ligated CheA P12^(2)/^(5)P3–5 produced by protein trans-splicing (PTS) in vivo (enzyme, E. coli)
chain: MSMDISDFYQTFFDEADELLADMEQHLLVLQPEAPDAEQLNAIFRAAHSIKGGAGTFGFSVLQETTHLMENLLDEARRGEMQLNTDIINLFLETKDIMQEQLDAYKQSQEPDAASFDYICQALRQLALEAKGETPSAVTRLSVVAKSEPQDEQSRSQSPRRIILSRLKAGEVDLLEEELGHLTTLTDVVKGADSLSAILPGDIAEDDITAVLCFVIEADQITFETVEVSPKISTPPVLGSCFNGTPTGRVEREKTTRSNESTSIRVAVEKVDQLINLVGELVITQSMLAQRSSELDPVNHGDLITSMGQLQRNARDLQESVMSIRMMPMEYVFSRYPRLVRDLAGKLGKQVELTLVGSSTELDKSLIERIIDPLTHLVRNSLDHGIELPEKRLAAGKNSVGNLILSAEHQGGNICIEVTDDGAGLNRERILAKAASQGLTVSENMSDDEVAMLIFAPGFSTAEQVTDVSGRGVGMDVVKRNIQKMGGHVEIQSKQGTGTTIRILLPLTLAILDGMSVRVADEVFILPLNAVMESLQPREADLHPLAGGERVLEVRGEYLPIVELWKVFNVAGAKTEATQGIVVILQSGGRRYALLVDQLIGQHQVVVKNLESNYRKVPGISAATILGDGSVALIVDVSALQAINREQRMANTAA
notes: CheA P12 domains, E. coli, amplified from genomic DNA of strain BL21, residues 1–238; stands instead of KLAAEQA of the P2-P3 linker; CheA P3–5 domains, E. coli, amplified from genomic DNA of strain BL21, residues 246–654; H6-Smt3 was removed with Ulp1; results and methods give a different order of SEC and tag removal, so its state at the SEC is open; P12 part [2H,15N]-labeled in the NMR sample; …
Q: For B3, which “stoichiometry N” value [3] is on record?
A: 2
